Measured values reported in patent US20130230533A1 (Regeneron, published 2013).

T1: Monomeric human CD48-mmH (human)
T1 chain: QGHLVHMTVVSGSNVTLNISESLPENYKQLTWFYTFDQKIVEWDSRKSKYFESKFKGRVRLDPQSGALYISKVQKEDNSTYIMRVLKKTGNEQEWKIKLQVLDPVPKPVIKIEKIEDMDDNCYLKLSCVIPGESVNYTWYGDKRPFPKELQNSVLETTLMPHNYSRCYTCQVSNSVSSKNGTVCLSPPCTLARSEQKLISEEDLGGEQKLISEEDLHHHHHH

T2: Dimeric human CD48-mFc (human)
T2 construct: the whole entry is the construct; also called hCD48-mFc
T2 chain: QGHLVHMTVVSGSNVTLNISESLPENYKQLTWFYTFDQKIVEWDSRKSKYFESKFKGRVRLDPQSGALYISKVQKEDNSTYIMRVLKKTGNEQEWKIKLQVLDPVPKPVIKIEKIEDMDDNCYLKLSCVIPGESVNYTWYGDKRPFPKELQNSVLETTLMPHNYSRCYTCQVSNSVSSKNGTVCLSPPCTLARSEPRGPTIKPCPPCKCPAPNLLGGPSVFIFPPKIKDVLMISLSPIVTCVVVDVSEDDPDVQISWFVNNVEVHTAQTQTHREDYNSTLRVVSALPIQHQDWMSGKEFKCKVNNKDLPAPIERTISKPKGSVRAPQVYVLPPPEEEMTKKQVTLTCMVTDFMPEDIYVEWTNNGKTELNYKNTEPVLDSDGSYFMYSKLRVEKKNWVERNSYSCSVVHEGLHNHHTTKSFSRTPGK

T3: Monomeric monkey CD48-mmH (monkey)
T3 construct: Soluble monkey CD48 with a myc-myc-hexa-histidine C-terminal tag; the whole entry is the construct; also called mfCD48-mmH
T3 chain: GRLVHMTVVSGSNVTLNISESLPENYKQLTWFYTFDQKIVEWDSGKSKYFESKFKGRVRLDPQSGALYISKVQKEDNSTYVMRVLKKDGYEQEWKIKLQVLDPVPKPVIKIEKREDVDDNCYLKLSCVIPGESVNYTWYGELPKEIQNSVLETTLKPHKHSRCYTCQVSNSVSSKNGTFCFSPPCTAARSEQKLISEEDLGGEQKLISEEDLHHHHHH

T4: Dimeric monkey CD48-mFc (monkey)
T4 construct: Soluble monkey CD48 with a C-terminal Fc fusion [mFc]; the whole entry is the construct
T4 chain: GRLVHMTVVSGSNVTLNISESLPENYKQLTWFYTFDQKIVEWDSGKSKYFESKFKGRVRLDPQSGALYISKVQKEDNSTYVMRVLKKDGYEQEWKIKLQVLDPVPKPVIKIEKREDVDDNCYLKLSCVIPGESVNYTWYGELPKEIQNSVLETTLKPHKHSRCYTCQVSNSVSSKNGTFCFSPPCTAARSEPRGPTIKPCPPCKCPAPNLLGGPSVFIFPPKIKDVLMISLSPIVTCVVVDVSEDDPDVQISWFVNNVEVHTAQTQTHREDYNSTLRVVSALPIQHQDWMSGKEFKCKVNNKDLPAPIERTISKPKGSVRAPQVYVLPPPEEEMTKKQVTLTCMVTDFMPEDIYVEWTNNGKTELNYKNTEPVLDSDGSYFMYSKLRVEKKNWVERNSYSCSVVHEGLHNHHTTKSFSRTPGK


How the values were obtained:
Monomeric human CD48-mmH = biological target: T1, Monomeric human CD48-mmH; test: SPR (Biacore), antibody captured by anti-Fc, CD48 in solution, 37 C
Method: (§1) Measurements were conducted on a T100-2 BIACORE™ instrument (Biacore Life Sciences division of GE Healthcare, Piscataway, N.J.). Antibodies (either with mouse Fc [designated “H2M” or “H3M”] or human IgG4 Fc [designated “H4H”]) were captured through an anti-Fc chip surface, and CD48 was flowed over the surface either in a monomeric (soluble CD48 expressed with a myc-myc-hexa-histidine C-terminal tag [mmH]) or dimeric (soluble CD48 expressed with a C-terminal Fc fusion [mFc]) format.
(§2) The soluble CD48 was applied to the flow cell in separate injections at different concentrations, and kinetic association (kₐ) and dissociation (kd) rate constants were determined by fits to the kinetic binding data using Biacore software. Binding dissociation equilibrium constants and dissociation half-times were calculated from the kinetic rate constants as: KD=kd/kₐ; t_{1/2}=(ln 2/kd) (units: ka=M⁻¹*s⁻¹; kd=s⁻¹; KD=M; T½=min) (Tables 3-6).

Dimeric human CD48-mFc = biological target: T2, Dimeric human CD48-mFc; test: as above
Method: as §1, §2

[1] = biological target: T3, Monomeric monkey CD48-mmH; test: as above
Method: as §1, §2

Dimeric monkey CD48-mFc [2] = biological target: T4, Dimeric monkey CD48-mFc; test: as above
Method: as §1, §2

[3] = biological target: T3, Monomeric monkey CD48-mmH; test: SPR (Biacore), antibody captured by anti-Fc, CD48 in solution, 25 C
Method: as §1, §2

Dimeric monkey CD48-mFc [4] = biological target: T4, Dimeric monkey CD48-mFc; test: as above
Method: as §1, §2

| Kd (Monomeric human CD48-mmH) | T½ (Monomeric human CD48-mmH) | koff (Monomeric human CD48-mmH) | kon (Monomeric human CD48-mmH) | Kd (Dimeric human CD48-mFc) | T½ (Dimeric human CD48-mFc) | koff (Dimeric human CD48-mFc) | kon (Dimeric human CD48-mFc) | Kd [1] | T½ [1] | koff [1] | kon [1] | Kd (Dimeric monkey CD48-mFc [2]) | T½ (Dimeric monkey CD48-mFc [2]) | koff (Dimeric monkey CD48-mFc [2]) | kon (Dimeric monkey CD48-mFc [2]) | Kd [3] | T½ [3] | koff [3] | kon [3] | Binder | other results |
| --- | --- | --- | --- | --- | --- | --- | --- | --- | --- | --- | --- | --- | --- | --- | --- | --- | --- | --- | --- | --- | --- |
| 9.63 nM | 4 min | 0.00273 s⁻¹ | 284000 M⁻¹ s⁻¹ | 0.0654 nM | 180 min | 6.42e-05 s⁻¹ | 981000 M⁻¹ s⁻¹ | 3.72 nM | 9 min | 0.00122 s⁻¹ | 327000 M⁻¹ s⁻¹ | 3.2 nM | 2 min | 0.00524 s⁻¹ | 1.64e+06 M⁻¹ s⁻¹ | 1.25 nM | 32 min | 0.000362 s⁻¹ | 289000 M⁻¹ s⁻¹ | H4H1707N (antibody, V domains shown, Human IgG4 Fc (H4H)) VH: EGQLLESGGGLAQPGGSLRLSCAASGITFGRYAMSWVRQAPGKGLEWVSLISGSGGSTYHADSVKGRFTISRDNSKNTLYLQMNSLRAEDTAVYYCAIYNNYNWFDPWGQGTLVTVSS VL: EIVLTQSPGTLSLSPGERATLSCRASQSVSSNYLAWYQQKPGQAPRLLIYDASSRATDIPDRFSGSGSGTDFTLTISRLEPEDFAVYYCQQYGSSPRTFGQGTKVEIK | Kd (Dimeric monkey CD48-mFc [4]): 1.48 nM; T½ (Dimeric monkey CD48-mFc [4]): 10 min; koff (Dimeric monkey CD48-mFc [4]): 0.00119 s⁻¹; kon (Dimeric monkey CD48-mFc [4]): 805000 M⁻¹ s⁻¹ |
| 22.7 nM | 4 min | 0.00295 s⁻¹ | 130000 M⁻¹ s⁻¹ | 0.966 nM | 45 min | 0.000256 s⁻¹ | 265000 M⁻¹ s⁻¹ |  |  |  |  |  |  |  |  |  |  |  |  | H2M1811N (antibody, mouse IgG2, V domains shown, Human variable domains, mouse IgG2 Fc (H2M)) VH: QVQLVQSGAEAREPGASVRVSCKASGYTFTDYFIHWVRQAPGQGLEWMGWINPNSGATNFAQKFQGRVTMTRDTSLITAYMDLSRLKSDDAAVFYCARDVDGSGWYLDFWGQGTLVTVSS VL: EIVLTQSPATLSLSPGERATLSCRASQSVSIYLAWYQQKPGQAPRLLIYDASNRATGIPARFSGSGSGTDFTLTISRLEPEDFAVYYCQQRSDWPPSITFGQGTRLEIK |  |
| 12.7 nM | 1 min | 0.0169 s⁻¹ | 1.33e+06 M⁻¹ s⁻¹ | 0.0267 nM | 184 min | 6.28e-05 s⁻¹ | 2.35e+06 M⁻¹ s⁻¹ | 2.49 nM | 9 min | 0.00133 s⁻¹ | 534000 M⁻¹ s⁻¹ | 0.047 nM | 101 min | 0.000114 s⁻¹ | 2.42e+06 M⁻¹ s⁻¹ | 2.34 nM | 9 min | 0.00124 s⁻¹ | 527000 M⁻¹ s⁻¹ | H4H1763N (antibody, V domains shown, Human IgG4 Fc (H4H)) VH: QIQLVQSGAEMKRPGTSVKVSCKASGYTFTSYGINWVRQAPGQGLEWMGWISAYNGDTNYAQKLQGRVTMTTDTSTTTAYMEVRSLRSDDTAVYYCARFLTGTKDYYYGMDVWGQGTTVTVSS VL: DIQMTQSPSSLSASVGDRVTITCQASQDISNFLNWYQQKPGKAPDLLINDASILETGVPSRFSGSGSGTDFTLTINNLQPEDIATYYCQQYDNLPLTFGGGTKVEIK | Kd (Dimeric monkey CD48-mFc [4]): 0.0519 nM; T½ (Dimeric monkey CD48-mFc [4]): 168 min; koff (Dimeric monkey CD48-mFc [4]): 6.88e-05 s⁻¹; kon (Dimeric monkey CD48-mFc [4]): 1.33e+06 M⁻¹ s⁻¹ |
